Assays:
Settings in all cases: remark: other sources report otherwise
[1] = biological target: T1, DJ-1 (endogenous, human) (human (endogenous in human brain, M17D cells, iPSC-derived neurons)), Q99497; assay: cross-linking; intact-cell crosslinking of minced, washed fresh human cortical biopsy; 1 mM DSG at increasing volume-to-protein ratio (DSP reduced by βME for total αS), 37 °C 30 min; then PBS ('cytosol') and TX-100 ('membrane') fractions, western blot
T1 chain: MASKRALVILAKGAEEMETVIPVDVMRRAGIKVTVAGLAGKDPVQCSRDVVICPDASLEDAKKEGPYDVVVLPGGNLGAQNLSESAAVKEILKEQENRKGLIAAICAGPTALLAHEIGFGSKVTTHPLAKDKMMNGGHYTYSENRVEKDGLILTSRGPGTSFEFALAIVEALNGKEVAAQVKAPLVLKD

[2] = biological target: T1, DJ-1 (endogenous, human) (human …); assay: cross-linking; intact neurons differentiated from A53T patient iPSCs or the corrected isogenic line; DSG; sequential extraction, cytosol blotted with 2F12, C20, Syn1
[3] = biological target: T1, DJ-1 (endogenous, human) (human …); assay: cross-linking; intact M17D cells transiently transfected with untagged αS variants; 1 mM DSG or 1.75 mM DSP, 30 min 37 °C; cytosol (PBS) or PBS/1% TX-100 lysate, western blot (Syn1) densitometry; values of the fPD mutants from a meta-analysis of DSG and DSP experiments

- stoichiometry N [1]: 2
- stoichiometry N [2]: 2
- stoichiometry N [3]: 2
B1: DJ-1 (endogenous, human), Q99497 1-189 (natural protein)
chain: MASKRALVILAKGAEEMETVIPVDVMRRAGIKVTVAGLAGKDPVQCSRDVVICPDASLEDAKKEGPYDVVVLPGGNLGAQNLSESAAVKEILKEQENRKGLIAAICAGPTALLAHEIGFGSKVTTHPLAKDKMMNGGHYTYSENRVEKDGLILTSRGPGTSFEFALAIVEALNGKEVAAQVKAPLVLKD
